Experimental data published in the RNAGym collection of RNA variant scans (doi:10.1021/acssynbio.7b00057).

B1: Pistol ribozyme (parent)
chain: GGGUCGUUGUUCCAUAAUCGCGUGGAUAUGGCACGCAAGUUUCUACCGGGCACCGUAAAUGUCCGACUGGAGCCGUUCGGGCGGCUAUAAACAGACCUCAGGCCCGAAGCGUGGCGGCACCUGCCGCCGGUGGUAAAAAAGAUCGGAAGAGCACACGUCU

Variants of: B1
Assay: aptazyme ON/OFF ratio, guanine; higher = stronger switching; co-transcriptional cleavage with and without guanine

Compared with U7C U8A G9U U10C C12U C13A, U7C U8A G9C U11C C12U C13A is lower in “aptazyme ON/OFF ratio” value: 1.12 for the first, 1.11 for the second.

First: U7C U8A G9C U11C C12U C13G
Second: U7C U8A G9C U11C C12U C13U
The “aptazyme ON/OFF ratio” value of the first is lower: 1.06 for the first, 1.12 for the second.

Compared with U7C U8A G9C U11C, U7C U8A G9C U11A is higher in “aptazyme ON/OFF ratio” value: 1.04 for the first, 1.05 for the second.

First: U7C U8A G9C U11G
Second: U7C U8A G9U U10G C12G C13G
The “aptazyme ON/OFF ratio” value of the first is higher: 1.13 for the first, 1.12 for the second.

First: U7C U8A G9U U10G C12G C13A
Second: U7C U8A G9C U10C U11A C12A C13U
The “aptazyme ON/OFF ratio” value of the first is higher: 1.12 for the first, 1.04 for the second.

First: U7C U8A G9C U10C U11A C12A C13G
Second: U7C U8A G9C U10C U11A C12A C13A
The “aptazyme ON/OFF ratio” value of the first is higher: 1.11 for the first, 1.07 for the second.

Compared with U7C U8A G9C U10G C12U, U7C U8A G9C U10G C12G is lower in “aptazyme ON/OFF ratio” value: 1.36 for the first, 1.28 for the second.

Compared with U7C U8A G9C U10G C12A, U7C U8A G9C U10C U11G C12A C13A is higher in “aptazyme ON/OFF ratio” value: 1.17 for the first, 1.21 for the second.

Compared with U7C U8A G9C U10C U11G C12A C13U, U7C U8A G9C U10C U11G C12A C13G is higher in “aptazyme ON/OFF ratio” value: 1.08 for the first, 1.17 for the second.

First: U7C U8A G9C U10G U11G C12G C13U
Second: U7C U8A G9C U10G U11G C12G C13G
The “aptazyme ON/OFF ratio” value of the first is lower: 1.09 for the first, 1.13 for the second.

Compared with U7C U8A G9C U10G U11G C12G C13A, U7C U8A G9U U10C U11G C12U C13A is higher in “aptazyme ON/OFF ratio” value: 1.11 for the first, 1.12 for the second.

Going from U7C U8A G9U U10C U11G C12U C13G to U7C U8A G9U U10C U11G C12U C13U, the “aptazyme ON/OFF ratio” value rises from 1.13 to 1.15.

U7C U8A G9C U11C C12G and U7C U8A G9C U11C C12A are the same in “aptazyme ON/OFF ratio” value: 1.11 for the first, 1.11 for the second.

First: U7C U8A G9C U11C C12U
Second: U7C U8A G9U U10A U11A C12G
The “aptazyme ON/OFF ratio” value of the first is lower: 1.14 for the first, 1.17 for the second.

First: U7C U8A G9U U10A U11A C12A
Second: U7C U8A G9U U10A U11A C12U
The “aptazyme ON/OFF ratio” value of the first is lower: 1.1 for the first, 1.14 for the second.

Compared with U7C U8A G9U U10A U11C C12G C13A, U7C U8A G9U U10A U11C C12G C13U is higher in “aptazyme ON/OFF ratio” value: 1.13 for the first, 1.25 for the second.

Compared with U7C U8A G9U U10A U11C C12G C13G, U7C U8A G9U U10A U11A C13G is lower in “aptazyme ON/OFF ratio” value: 1.19 for the first, 1.07 for the second.

Going from U7C U8A G9U U10A U11A C13U to U7C U8A G9U U10A U11A C13A, the “aptazyme ON/OFF ratio” value falls from 1.19 to 1.13.

Compared with U7C U8A G9C U10G U11G C12A, U7C U8A G9C U10G U11G C12G is lower in “aptazyme ON/OFF ratio” value: 1.23 for the first, 1.13 for the second.

Compared with U7C U8A G9C U10G U11G C12U, U7C U8A G9U U10C U11C C13G is lower in “aptazyme ON/OFF ratio” value: 1.12 for the first, 1.03 for the second.

Going from U7C U8A G9U U10C U11C C13A to U7C U8A G9U U10C U11C C13U, the “aptazyme ON/OFF ratio” value falls from 1.02 to 1.01.

First: U7C U8A G9U C13A
Second: U7C U8A G9U C13G
The “aptazyme ON/OFF ratio” value of the first is higher: 1.16 for the first, 1.03 for the second.

First: U7C U8A G9U C13U
Second: U7C U8A G9U U10A U11C C12A
The “aptazyme ON/OFF ratio” value of the first is higher: 1.28 for the first, 1.15 for the second.

Compared with U7C U8A G9U U10A U11C C12U, U7C U8A G9U U10A U11C C12G is higher in “aptazyme ON/OFF ratio” value: 1.07 for the first, 1.28 for the second.

Going from U7C U8A G9U U10G C12G to U7C U8A G9U U10G C12A, the “aptazyme ON/OFF ratio” value rises from 1.08 to 1.12.

Compared with U7C U8A G9C U10G U11G C13G, U7C U8A G9C U10G U11G C13U is higher in “aptazyme ON/OFF ratio” value: 1.11 for the first, 1.14 for the second.

First: U7C U8A G9C U10G U11G C13A
Second: U7C U8A G9C U10C U11G C12G C13G
The “aptazyme ON/OFF ratio” value of the first is higher: 1.13 for the first, 1.11 for the second.

Going from U7C U8A G9C U10C U11G C12G C13A to U7C U8A G9C U10C U11G C12G C13U, the “aptazyme ON/OFF ratio” value falls from 1.11 to 1.07.

First: U7C U8A G9C U11A C12U C13U
Second: U7C U8A G9C U11A C12U C13A
The “aptazyme ON/OFF ratio” value of the first is higher: 1.2 for the first, 1.16 for the second.

Going from U7C U8A G9C U11A C12U C13G to U7C U8A G9U U10C C13G, the “aptazyme ON/OFF ratio” value falls from 1.1 to 1.07.

Going from U7C U8A G9U U10C C13A to U7C U8A G9U U10C C13U, the “aptazyme ON/OFF ratio” value rises from 1.05 to 1.8.

Going from U7C U8A G9C U10G U11C C12G C13A to U7C U8A G9C U10G U11C C12G C13U, the “aptazyme ON/OFF ratio” value falls from 1.25 to 1.19.

Going from U7C U8A G9C U10G U11C C12G C13G to U7C U8A G9U U10C U11A C12G C13U, the “aptazyme ON/OFF ratio” value falls from 1.23 to 1.13.

Going from U7C U8A G9U U10C U11A C12G C13A to U7C U8A G9U U10C U11A C12G C13G, the “aptazyme ON/OFF ratio” value falls from 1.1 to 1.09.

Going from U7C U8A G9C U10C U11C C12A C13U to U7C U8A G9C U10C U11C C12A C13G, the “aptazyme ON/OFF ratio” value falls from 1.05 to 1.

Going from U7C U8A G9C U10C U11C C12A C13A to U7C U8A G9C U11G C12G C13A, the “aptazyme ON/OFF ratio” value rises from 1.04 to 1.1.

Going from U7C U8A G9C U11G C12G C13G to U7C U8A G9C U11G C12G C13U, the “aptazyme ON/OFF ratio” value falls from 1.07 to 1.05.

Compared with U7C U8A G9U U10C U11A C12A C13U, U7C U8A G9U U10C U11A C12A C13A is lower in “aptazyme ON/OFF ratio” value: 1.15 for the first, 1.08 for the second.

First: U7C U8A G9U U10C U11A C12A C13G
Second: U7C U8A G9U U10A C12G C13U
The “aptazyme ON/OFF ratio” value of the first is lower: 1.13 for the first, 1.25 for the second.

Going from U7C U8A G9U U10A C12G C13A to U7C U8A G9U U10A C12G C13G, the “aptazyme ON/OFF ratio” value rises from 1.12 to 1.17.

Compared with U7C U8A G9C U10C U11C C12U C13G, U7C U8A G9C U10C U11C C12U C13U is lower in “aptazyme ON/OFF ratio” value: 1.03 for the first, 1.02 for the second.

For U7C U8A G9C U10C U11C C12U C13A, the “aptazyme ON/OFF ratio” value was 1.03.
